We go through four sequences from patent US20240425885.

Experiment in all cases: cleavage_in_vitro
The subject of series [1] is T1, OMNI-128 (metagenomic, unknown).
T1 sequence: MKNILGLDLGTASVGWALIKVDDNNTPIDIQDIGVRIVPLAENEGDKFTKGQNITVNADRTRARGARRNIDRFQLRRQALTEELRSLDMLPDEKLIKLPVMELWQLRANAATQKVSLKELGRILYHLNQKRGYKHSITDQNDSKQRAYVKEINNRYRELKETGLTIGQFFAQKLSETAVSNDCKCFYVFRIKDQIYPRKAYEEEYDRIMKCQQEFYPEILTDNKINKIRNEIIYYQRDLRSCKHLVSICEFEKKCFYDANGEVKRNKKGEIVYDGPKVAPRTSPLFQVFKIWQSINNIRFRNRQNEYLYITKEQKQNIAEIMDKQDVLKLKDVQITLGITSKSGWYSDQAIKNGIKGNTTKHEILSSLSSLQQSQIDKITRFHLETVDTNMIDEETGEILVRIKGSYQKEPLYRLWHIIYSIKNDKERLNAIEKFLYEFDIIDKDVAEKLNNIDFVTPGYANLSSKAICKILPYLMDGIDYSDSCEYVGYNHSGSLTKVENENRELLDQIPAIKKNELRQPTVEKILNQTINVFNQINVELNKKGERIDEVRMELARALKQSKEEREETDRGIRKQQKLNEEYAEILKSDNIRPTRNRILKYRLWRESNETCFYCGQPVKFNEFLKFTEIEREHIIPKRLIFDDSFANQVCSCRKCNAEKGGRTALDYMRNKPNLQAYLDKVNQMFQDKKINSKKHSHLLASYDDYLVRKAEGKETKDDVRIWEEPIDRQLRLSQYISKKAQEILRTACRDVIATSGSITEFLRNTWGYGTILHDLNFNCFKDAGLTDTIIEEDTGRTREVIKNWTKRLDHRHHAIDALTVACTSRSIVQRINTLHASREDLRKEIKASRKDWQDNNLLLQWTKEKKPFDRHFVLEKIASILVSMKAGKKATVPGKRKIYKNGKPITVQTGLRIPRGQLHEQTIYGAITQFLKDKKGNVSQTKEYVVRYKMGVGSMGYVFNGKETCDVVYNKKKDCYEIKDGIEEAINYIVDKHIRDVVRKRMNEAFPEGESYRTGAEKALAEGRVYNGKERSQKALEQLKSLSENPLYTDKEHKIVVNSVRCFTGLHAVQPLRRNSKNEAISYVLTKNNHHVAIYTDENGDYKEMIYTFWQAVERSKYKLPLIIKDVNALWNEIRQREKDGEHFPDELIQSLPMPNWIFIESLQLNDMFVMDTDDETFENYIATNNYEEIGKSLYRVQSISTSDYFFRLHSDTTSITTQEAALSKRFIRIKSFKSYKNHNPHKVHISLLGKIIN
The note with it: TXTL; PAM NRYHCCNN

Series [2] deals with T2, OMNI-133 (metagenomic, unknown).
T2 sequence: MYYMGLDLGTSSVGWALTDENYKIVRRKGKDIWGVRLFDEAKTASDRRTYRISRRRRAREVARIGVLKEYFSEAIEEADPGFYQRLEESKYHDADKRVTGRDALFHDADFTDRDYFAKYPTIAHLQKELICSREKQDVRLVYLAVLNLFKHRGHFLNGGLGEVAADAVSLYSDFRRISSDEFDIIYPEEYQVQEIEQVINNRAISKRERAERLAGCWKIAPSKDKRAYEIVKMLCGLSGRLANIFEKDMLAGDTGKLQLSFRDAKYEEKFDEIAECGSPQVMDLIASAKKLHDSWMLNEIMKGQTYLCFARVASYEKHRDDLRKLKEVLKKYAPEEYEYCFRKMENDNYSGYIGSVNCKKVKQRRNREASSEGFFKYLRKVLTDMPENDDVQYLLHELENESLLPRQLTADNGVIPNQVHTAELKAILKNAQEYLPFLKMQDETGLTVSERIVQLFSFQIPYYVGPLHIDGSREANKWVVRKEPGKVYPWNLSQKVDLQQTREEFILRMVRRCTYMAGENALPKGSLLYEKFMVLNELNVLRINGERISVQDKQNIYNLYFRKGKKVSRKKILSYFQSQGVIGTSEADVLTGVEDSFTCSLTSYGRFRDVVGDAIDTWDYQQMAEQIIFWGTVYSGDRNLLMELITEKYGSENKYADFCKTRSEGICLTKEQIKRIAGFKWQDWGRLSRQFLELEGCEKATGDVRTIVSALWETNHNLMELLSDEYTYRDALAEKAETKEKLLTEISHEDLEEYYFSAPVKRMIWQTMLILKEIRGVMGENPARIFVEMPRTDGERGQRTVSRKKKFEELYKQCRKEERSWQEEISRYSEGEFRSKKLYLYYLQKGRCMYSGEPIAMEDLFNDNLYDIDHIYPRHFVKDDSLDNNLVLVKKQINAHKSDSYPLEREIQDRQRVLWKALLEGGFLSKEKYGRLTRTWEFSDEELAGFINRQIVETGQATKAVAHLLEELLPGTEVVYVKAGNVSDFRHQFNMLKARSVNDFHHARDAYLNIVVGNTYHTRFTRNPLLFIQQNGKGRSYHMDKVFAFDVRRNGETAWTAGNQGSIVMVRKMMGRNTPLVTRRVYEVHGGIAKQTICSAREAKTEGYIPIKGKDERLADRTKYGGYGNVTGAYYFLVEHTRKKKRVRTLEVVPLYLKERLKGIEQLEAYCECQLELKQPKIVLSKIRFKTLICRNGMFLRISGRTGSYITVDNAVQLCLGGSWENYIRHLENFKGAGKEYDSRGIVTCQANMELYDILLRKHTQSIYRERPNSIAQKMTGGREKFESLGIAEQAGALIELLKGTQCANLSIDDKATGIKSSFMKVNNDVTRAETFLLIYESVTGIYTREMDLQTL
The note with it: TXTL; PAM NNTAMCNN

Series [3] deals with T3, OMNI-131 (metagenomic, unknown).
T3 sequence: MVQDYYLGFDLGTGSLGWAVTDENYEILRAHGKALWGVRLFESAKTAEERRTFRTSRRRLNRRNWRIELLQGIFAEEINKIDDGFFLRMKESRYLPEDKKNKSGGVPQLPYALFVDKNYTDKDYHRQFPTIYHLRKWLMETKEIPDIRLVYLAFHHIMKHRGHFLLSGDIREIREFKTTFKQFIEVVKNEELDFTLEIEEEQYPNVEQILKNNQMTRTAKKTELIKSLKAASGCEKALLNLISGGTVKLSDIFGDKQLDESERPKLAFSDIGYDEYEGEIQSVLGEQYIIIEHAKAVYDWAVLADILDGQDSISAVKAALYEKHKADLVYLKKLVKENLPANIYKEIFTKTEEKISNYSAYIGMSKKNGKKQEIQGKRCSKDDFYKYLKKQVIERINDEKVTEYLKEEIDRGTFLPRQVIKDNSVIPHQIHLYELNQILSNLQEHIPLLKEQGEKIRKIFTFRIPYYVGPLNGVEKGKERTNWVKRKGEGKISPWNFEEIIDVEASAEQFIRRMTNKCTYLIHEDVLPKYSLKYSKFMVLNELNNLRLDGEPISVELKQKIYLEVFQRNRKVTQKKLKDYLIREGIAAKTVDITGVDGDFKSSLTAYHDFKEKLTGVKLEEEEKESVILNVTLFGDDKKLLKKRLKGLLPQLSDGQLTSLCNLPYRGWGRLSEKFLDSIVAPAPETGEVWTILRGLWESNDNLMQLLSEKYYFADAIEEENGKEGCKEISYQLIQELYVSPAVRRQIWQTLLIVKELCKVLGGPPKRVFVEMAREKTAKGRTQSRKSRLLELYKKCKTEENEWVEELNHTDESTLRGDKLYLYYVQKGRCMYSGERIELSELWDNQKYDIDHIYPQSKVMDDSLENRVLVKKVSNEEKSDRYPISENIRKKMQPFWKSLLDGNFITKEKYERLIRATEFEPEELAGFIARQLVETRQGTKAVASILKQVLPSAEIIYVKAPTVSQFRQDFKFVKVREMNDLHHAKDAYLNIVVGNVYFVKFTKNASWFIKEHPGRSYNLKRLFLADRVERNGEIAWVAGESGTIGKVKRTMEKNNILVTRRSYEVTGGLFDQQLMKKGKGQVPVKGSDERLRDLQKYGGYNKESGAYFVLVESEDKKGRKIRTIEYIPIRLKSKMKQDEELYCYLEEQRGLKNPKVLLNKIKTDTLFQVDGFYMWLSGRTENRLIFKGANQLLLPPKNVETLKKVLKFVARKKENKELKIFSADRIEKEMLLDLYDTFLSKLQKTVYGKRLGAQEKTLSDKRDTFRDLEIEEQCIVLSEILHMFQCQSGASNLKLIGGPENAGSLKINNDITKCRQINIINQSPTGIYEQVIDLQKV
The note with it: TXTL; PAM NRWRCCNN

For series [4], the system named is T4, OMNI-129 (metagenomic, unknown).
T4 sequence: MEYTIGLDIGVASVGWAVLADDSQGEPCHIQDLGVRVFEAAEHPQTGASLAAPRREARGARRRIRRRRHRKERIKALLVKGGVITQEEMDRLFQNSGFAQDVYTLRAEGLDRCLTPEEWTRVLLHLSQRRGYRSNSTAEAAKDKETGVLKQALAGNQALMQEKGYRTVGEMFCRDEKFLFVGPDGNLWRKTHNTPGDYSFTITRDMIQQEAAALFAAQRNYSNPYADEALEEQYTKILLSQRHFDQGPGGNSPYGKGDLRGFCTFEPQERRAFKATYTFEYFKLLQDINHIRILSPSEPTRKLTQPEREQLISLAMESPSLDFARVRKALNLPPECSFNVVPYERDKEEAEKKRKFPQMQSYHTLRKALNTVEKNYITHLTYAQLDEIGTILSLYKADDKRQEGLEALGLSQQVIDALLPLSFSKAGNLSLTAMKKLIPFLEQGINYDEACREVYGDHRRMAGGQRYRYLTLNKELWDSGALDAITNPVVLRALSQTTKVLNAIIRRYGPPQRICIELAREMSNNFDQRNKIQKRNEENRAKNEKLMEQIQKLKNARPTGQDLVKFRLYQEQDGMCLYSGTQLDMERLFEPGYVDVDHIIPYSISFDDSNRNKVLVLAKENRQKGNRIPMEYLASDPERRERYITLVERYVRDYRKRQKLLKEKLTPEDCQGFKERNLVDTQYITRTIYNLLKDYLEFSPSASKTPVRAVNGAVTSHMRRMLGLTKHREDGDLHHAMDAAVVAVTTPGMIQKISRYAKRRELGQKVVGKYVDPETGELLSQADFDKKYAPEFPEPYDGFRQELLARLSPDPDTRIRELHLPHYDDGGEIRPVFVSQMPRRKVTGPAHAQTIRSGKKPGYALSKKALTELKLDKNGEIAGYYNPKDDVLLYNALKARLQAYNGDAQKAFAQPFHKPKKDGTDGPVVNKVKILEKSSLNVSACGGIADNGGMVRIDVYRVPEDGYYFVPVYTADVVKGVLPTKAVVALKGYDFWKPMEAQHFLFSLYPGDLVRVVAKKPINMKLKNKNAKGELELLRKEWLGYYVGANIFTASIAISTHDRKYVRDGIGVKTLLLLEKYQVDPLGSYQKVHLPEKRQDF
The following applies: TXTL; PAM NNNNGAAA

“GGAAGAGCAGAGCCUUGGUCUCGUUGUGAUUUGCUGAAGAAAUUCAGCAAAUCACAAUAAGGAUUAUUCCGUUGUGAAAACAUUCAAGGCGGCGCAAGUCGCCUUUUUU / GGAAGAGCAGAGCCTTGGTCTCNNNNNNNN / NNNNNNNNGAGACCAAGGCTCTGCTCTTCC [T2 sgRNA 29 V1 ; T2 protospacer + 8N PAM library (pbPOS T2)]” displayed an activity (1-depletion score) in series [1] of 0.87.

Consider “GGAAGAGCAGAGCCUUGGUCUCGUUUGAGAACCUUGUAAGAAAUUACAAGGUGAGUGCAAAUAAGGAUUUUUCCGAAAUCACUCCUCAUAAGAGUCCGCAUUGUGCGGUGAAAAGACUCUGCCAAGAGUCUUUUUU / GGAAGAGCAGAGCCTTGGTCTCNNNNNNNN / NNNNNNNNGAGACCAAGGCTCTGCTCTTCC [T2 sgRNA 33 V1 ; T2 protospacer + 8N PAM library (pbPOS T2)]”, for which the activity (1-depletion score) in series [2] was determined as 0.95.

“GGAAGAGCAGAGCCUUGGUCUCGUUUGAGAAUGAUGUAAGAAAUUACAUCAUAAGUUCAAAUAACGAUUUAUCGAAGACGCCGUUUAUAACGGCCCACAGUGAGUGGAAAGAAAGCUGUUGCUCAUAGGAGCAGCAGUUUUUU / GGAAGAGCAGAGCCTTGGTCTCNNNNNNNN / NNNNNNNNGAGACCAAGGCTCTGCTCTTCC [T2 sgRNA 31 V1 ; T2 protospacer + 8N PAM library (pbPOS T2)]” came in with an activity (1-depletion score) in series [3] of 0.95.

In turn, “GGAAGAGCAGAGCCUUGGUCUCGUUGUAGUUCCCUAAUGUUGAAAGACAUUAGGUUACUGCGAUCAGGCAGUAUGCCUCAGAGCUCCGCCCUAACCACGUUUUGUGGUUGGGGCGUCUUUGCAUUUUUU / GGAAGAGCAGAGCCTTGGTCTCNNNNNNNN / NNNNNNNNGAGACCAAGGCTCTGCTCTTCC [T2 sgRNA 30 V1 ; T2 protospacer + 8N PAM library (pbPOS T2)]” displayed an activity (1-depletion score) in series [4] of 0.95.
